Measurements as given in article PMC9482650, “Quantitative fragmentomics allow affinity mapping of interactomes” (Nature Communications, 2022).

Tests used:
Test in all cases: holdup assay
Design in all cases: key: below the threshold = too weak to quantify, mostly under pKd 3.1 to 4
Conditions in all cases: plain residues with an end cap or a label only (N-terminal biotin on a linker: ado-ado)
DLG1_1, Q12959 = biological target: DLG1_1, Q12959
PCLO, Q9Y6V0 = biological target: T1, PCLO, Q9Y6V0
T1 sequence (Q9Y6V0 4491-4600, limits assumed, looked up): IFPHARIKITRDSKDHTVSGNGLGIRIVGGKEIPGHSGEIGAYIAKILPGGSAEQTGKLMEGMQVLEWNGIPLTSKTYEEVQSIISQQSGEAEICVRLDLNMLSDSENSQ

SCRIB_3, Q14160 = biological target: SCRIB_3, Q14160
Sequence of SCRIB_3, Q14160 (Q14160 999-1103): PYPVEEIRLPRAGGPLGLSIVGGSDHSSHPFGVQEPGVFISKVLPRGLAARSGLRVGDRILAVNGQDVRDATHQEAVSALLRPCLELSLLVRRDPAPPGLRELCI

LNX2_3, Q8N448 = biological target: T2, LNX2_3, Q8N448
T2 sequence (Q8N448 463-564, limits assumed, looked up): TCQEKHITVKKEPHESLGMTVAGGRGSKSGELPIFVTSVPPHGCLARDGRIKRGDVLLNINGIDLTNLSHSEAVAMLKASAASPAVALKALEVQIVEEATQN

TJP1_3, Q07157 = biological target: TJP1_3, Q07157
Sequence of TJP1_3, Q07157 (Q07157 416-512): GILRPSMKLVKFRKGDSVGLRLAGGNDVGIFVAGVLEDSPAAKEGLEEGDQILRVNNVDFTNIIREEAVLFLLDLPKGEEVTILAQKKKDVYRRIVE

IL16_3, Q14005 = biological target: IL16_3, Q14005
Sequence of IL16_3, Q14005 (Q14005 1107-1207): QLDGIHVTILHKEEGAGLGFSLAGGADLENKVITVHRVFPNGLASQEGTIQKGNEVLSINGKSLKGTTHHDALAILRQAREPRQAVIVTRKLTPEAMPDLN

LNX1_3, Q8TBB1 = biological target: LNX1_3, Q8TBB1
Sequence of LNX1_3, Q8TBB1 (Q8TBB1 500-596): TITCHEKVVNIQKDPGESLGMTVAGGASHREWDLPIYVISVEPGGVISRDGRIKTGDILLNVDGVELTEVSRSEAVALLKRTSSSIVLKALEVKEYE

FRMPD4, Q14CM0 = biological target: FRMPD4, Q14CM0
Sequence of FRMPD4, Q14CM0 (Q14CM0 67-160): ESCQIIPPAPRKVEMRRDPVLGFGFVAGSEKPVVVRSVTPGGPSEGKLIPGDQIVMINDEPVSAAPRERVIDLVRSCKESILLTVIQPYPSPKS

PTPN3, P26045 = biological target: PTPN3, P26045
Sequence of PTPN3, P26045 (P26045 505-587): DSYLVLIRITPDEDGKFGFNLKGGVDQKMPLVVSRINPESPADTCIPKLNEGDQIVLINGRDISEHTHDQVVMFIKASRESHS

MAGI2_4, Q86UL8 = biological target: MAGI2_4, Q86UL8
Sequence of MAGI2_4, Q86UL8 (Q86UL8 772-865): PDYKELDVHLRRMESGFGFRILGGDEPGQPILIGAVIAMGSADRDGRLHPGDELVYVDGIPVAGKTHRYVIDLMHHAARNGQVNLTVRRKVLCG

GRIP2_6, Q9C0E4 = biological target: GRIP2_6, Q9C0E4
Sequence of GRIP2_6, Q9C0E4 (Q9C0E4 648-740): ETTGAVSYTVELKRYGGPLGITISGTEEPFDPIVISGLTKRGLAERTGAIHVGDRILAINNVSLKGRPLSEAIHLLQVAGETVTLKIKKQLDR

LNX1_1, Q8TBB1 = biological target: LNX1_1, Q8TBB1
Sequence of LNX1_1, Q8TBB1 (Q8TBB1 261-371): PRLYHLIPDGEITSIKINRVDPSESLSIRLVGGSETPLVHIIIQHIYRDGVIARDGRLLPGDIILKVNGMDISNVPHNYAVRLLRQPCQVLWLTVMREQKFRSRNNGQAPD

MAGI2_5, Q86UL8 = biological target: MAGI2_5, Q86UL8
Sequence of MAGI2_5, Q86UL8 (Q86UL8 915-1017): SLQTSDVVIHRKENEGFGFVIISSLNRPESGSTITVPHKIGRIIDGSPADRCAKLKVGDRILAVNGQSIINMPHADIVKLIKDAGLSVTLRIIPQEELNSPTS

ARHGAP21, Q5T5U3 = biological target: T3, ARHGAP21, Q5T5U3
T3 sequence (Q5T5U3 45-169, limits assumed, looked up): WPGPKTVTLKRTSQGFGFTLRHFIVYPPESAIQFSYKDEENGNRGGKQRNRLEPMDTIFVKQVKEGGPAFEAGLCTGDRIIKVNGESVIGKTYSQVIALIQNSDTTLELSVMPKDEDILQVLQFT

MPP2, Q14168 = biological target: T4, MPP2, Q14168
T4 sequence (Q14168 180-250, limits assumed, looked up): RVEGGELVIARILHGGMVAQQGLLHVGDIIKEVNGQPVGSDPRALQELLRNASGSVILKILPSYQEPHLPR

Inadl_10, Q8NI35 = biological target: Inadl_10, Q8NI35
Sequence of Inadl_10, Q8NI35 (Q8NI35 1673-1763): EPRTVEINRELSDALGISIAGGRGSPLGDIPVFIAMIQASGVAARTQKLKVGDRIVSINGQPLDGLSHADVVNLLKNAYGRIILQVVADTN

IL16_1, Q14005 = biological target: IL16_1, Q14005
Sequence of IL16_1, Q14005 (Q14005 210-306): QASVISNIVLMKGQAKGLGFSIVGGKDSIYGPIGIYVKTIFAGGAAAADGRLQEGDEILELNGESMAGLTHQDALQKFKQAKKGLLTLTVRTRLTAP

GRID2IP_2, A4D2P6 = biological target: GRID2IP_2, A4D2P6
Sequence of GRID2IP_2, A4D2P6 (A4D2P6 272-370): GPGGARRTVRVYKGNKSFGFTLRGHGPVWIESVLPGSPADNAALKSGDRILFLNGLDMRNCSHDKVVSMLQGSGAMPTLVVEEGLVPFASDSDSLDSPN

MPP7, Q5T2T1 = biological target: T5, MPP7, Q5T2T1
T5 sequence (Q5T2T1 134-230, limits assumed, looked up): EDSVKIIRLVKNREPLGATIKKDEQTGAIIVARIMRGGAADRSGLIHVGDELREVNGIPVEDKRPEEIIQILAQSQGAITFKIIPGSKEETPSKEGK

APBA2_2, Q99767 = biological target: T6, APBA2_2, Q99767
T6 sequence (Q99767 654-744, limits assumed, looked up): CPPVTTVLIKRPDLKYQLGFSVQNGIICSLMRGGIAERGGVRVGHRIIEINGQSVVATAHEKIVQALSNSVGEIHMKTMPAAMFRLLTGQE

PDZRN3_1, Q9UPQ7 = biological target: T7, PDZRN3_1, Q9UPQ7
T7 sequence (Q9UPQ7 244-349, limits assumed, looked up): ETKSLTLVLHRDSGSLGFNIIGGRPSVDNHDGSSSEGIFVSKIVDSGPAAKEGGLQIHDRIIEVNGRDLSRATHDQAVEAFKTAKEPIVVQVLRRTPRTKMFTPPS

SNTG1, Q9NSN8 = biological target: T8, SNTG1, Q9NSN8
T8 sequence (Q9NSN8 52-150, limits assumed, looked up): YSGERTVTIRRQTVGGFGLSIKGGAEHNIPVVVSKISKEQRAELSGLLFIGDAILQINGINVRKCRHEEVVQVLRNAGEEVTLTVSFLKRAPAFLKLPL

GRIP2_5, Q9C0E4 = biological target: GRIP2_5, Q9C0E4
Sequence of GRIP2_5, Q9C0E4 (Q9C0E4 544-642): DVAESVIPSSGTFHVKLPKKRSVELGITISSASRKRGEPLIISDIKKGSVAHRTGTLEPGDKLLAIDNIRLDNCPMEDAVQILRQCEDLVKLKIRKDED

APBA1_2, Q02410 = biological target: T9, APBA1_2, Q02410
T9 sequence (Q02410 742-832, limits assumed, looked up): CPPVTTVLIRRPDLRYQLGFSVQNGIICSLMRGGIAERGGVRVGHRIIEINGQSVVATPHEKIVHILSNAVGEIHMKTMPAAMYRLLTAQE

NHERF3_1, Q5T2W1 = biological target: T10, NHERF3_1, Q5T2W1
T10 sequence (Q5T2W1 4-100, limits assumed, looked up): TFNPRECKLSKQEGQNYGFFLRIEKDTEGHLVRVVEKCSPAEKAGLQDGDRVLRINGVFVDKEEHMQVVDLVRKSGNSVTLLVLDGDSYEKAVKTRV

DLG4_2, P78352 = biological target: DLG4_2, P78352
Sequence of DLG4_2, P78352 (P78352 155-259): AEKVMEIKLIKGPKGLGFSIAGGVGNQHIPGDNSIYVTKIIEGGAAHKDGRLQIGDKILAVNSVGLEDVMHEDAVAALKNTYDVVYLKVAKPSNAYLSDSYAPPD

GRIP2_3, Q9C0E4 = biological target: GRIP2_3, Q9C0E4
Sequence of GRIP2_3, Q9C0E4 (Q9C0E4 238-339): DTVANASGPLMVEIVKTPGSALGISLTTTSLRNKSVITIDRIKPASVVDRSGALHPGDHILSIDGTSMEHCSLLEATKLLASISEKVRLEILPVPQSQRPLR

GRIP2_4, Q9C0E4 = biological target: GRIP2_4, Q9C0E4
Sequence of GRIP2_4, Q9C0E4 (Q9C0E4 446-548): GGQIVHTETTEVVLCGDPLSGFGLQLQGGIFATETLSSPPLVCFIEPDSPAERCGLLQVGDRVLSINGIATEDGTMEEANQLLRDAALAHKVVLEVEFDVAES

Binder | pKd (DLG1_1, Q12959) | pKd (PCLO, Q9Y6V0) | pKd (SCRIB_3, Q14160) | pKd (LNX2_3, Q8N448) | pKd (TJP1_3, Q07157) | pKd (IL16_3, Q14005) | pKd (LNX1_3, Q8TBB1) | pKd (FRMPD4, Q14CM0) | pKd (PTPN3, P26045) | pKd (MAGI2_4, Q86UL8) | pKd (GRIP2_6, Q9C0E4) | pKd (LNX1_1, Q8TBB1) | pKd (MAGI2_5, Q86UL8) | pKd (ARHGAP21, Q5T5U3) | pKd (MPP2, Q14168) | pKd (Inadl_10, Q8NI35) | pKd (IL16_1, Q14005) | pKd (GRID2IP_2, A4D2P6) | pKd (MPP7, Q5T2T1) | pKd (APBA2_2, Q99767) | further results
VKRNSKETVV [MARCHF3, Q86UD3] | 5.48 | below the threshold | 4.51 | below the threshold | below the threshold | below the threshold | below the threshold | below the threshold | 4.79 | 4.21 | below the threshold | below the threshold | 3.98 | below the threshold | below the threshold | below the threshold | 3.94 | below the threshold | below the threshold | below the threshold | pKd (PDZRN3_1, Q9UPQ7): 3.69; pKd (SNTG1, Q9NSN8): 4.13; pKd (GRIP2_5, Q9C0E4): below the threshold; pKd (APBA1_2, Q02410): 3.88; pKd (NHERF3_1, Q5T2W1): below the threshold; pKd (DLG4_2, P78352): 6.03; pKd (GRIP2_3, Q9C0E4): below the threshold; pKd (GRIP2_4, Q9C0E4): below the threshold
LESTTVGTSV [KARS1, Q15046] | 4.27 | below the threshold | 4.4 | below the threshold | below the threshold | below the threshold | below the threshold | below the threshold | 4.82 | 4.31 | below the threshold | 3.97 | 4.06 | below the threshold | below the threshold | below the threshold | 3.79 | 4.06 | below the threshold | below the threshold | pKd (PDZRN3_1, Q9UPQ7): 4.24; pKd (SNTG1, Q9NSN8): 3.7; pKd (GRIP2_5, Q9C0E4): below the threshold; pKd (APBA1_2, Q02410): 4.69; pKd (NHERF3_1, Q5T2W1): 4.13; pKd (DLG4_2, P78352): 4.35; pKd (GRIP2_3, Q9C0E4): below the threshold; pKd (GRIP2_4, Q9C0E4): below the threshold
NIAESLESLV [PTPRZ1, P23471] | 4.57 | below the threshold | 3.87 | below the threshold | below the threshold | below the threshold | below the threshold | below the threshold | 4.64 | 4.45 | below the threshold | 4.36 | 5.47 | below the threshold | below the threshold | below the threshold | 4.6 | below the threshold | below the threshold | below the threshold | pKd (PDZRN3_1, Q9UPQ7): 4.22; pKd (SNTG1, Q9NSN8): 4.94; pKd (GRIP2_5, Q9C0E4): below the threshold; pKd (APBA1_2, Q02410): below the threshold; pKd (NHERF3_1, Q5T2W1): 4.59; pKd (DLG4_2, P78352): 5.09; pKd (GRIP2_3, Q9C0E4): below the threshold; pKd (GRIP2_4, Q9C0E4): below the threshold
ILRKSTTTTV [PRR16, Q569H4] | 4.76 | below the threshold | 3.67 | below the threshold | below the threshold | below the threshold | below the threshold | below the threshold | 3.92 | 4.14 | below the threshold | below the threshold | below the threshold | 3.92 | below the threshold | below the threshold | below the threshold | 3.8 | below the threshold | below the threshold | pKd (PDZRN3_1, Q9UPQ7): below the threshold; pKd (SNTG1, Q9NSN8): 3.49; pKd (GRIP2_5, Q9C0E4): below the threshold; pKd (APBA1_2, Q02410): below the threshold; pKd (NHERF3_1, Q5T2W1): below the threshold; pKd (DLG4_2, P78352): 5.2; pKd (GRIP2_3, Q9C0E4): below the threshold; pKd (GRIP2_4, Q9C0E4): below the threshold
